{
  "source": "patent US20230203199A1",
  "about": "(published 2023)",
  "target": "T1, hCD20 on transfected Expi293 cells (human, UniProt P11836 1-297)",
  "T1 construct": "whole, on cells",
  "T1 sequence (looked up)": "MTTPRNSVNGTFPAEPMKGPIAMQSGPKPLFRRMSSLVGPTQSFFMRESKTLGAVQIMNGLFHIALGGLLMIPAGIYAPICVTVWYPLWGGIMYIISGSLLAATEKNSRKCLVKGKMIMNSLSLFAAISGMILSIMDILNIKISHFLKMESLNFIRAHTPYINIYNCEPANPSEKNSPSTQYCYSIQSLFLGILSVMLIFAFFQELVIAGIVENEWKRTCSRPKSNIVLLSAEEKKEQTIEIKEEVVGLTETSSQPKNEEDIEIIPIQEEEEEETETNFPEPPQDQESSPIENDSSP",
  "test": "flow cytometry on Expi293 cells transfected with hCD20, anti-human Fc PE detection",
  "procedure": "Expi293 cells transfected hCD20 were seeded in 96 U-bottom plate at 1×10e5 cells/well. The TASER antibody or human IgG1 isotype control were added at final concentration 1-10 μg/ml and incubated on ice or at 4° C. for 20-30 minutes. […] Stained cells were analyzed by flow cytometry and the binding ability were presented as PE positive population among total live cells.",
  "data": [
    {"binder": "MX846 (bispecific antibody) chain 1: not shown chain 2: QAVVTQEPSLTVSPGGTVTLTCGSSTGAVTTSNYANWVQEKPGQAFRGLIGGTNKRAPGTPARFSGSLLGGKAALTLSGAQPEDEAEYYCALWYSNLWVFGGGTKLTVLGGSGGDIVMTQTPLSLPVTPGEPASISCRSSKSLLHSNGITYLYWYLQKPGQSPQLLIYQMSNLVSGVPDRFSGSGSGTDFTLKISRVEAEDVGVYYCAQNLELPYTFGGGTKVEIKGSGGSAGSGSGGGGSASGSGQVQLVQSGAEVKKPGSSVKVSCKASGYAFSYSWINWVRQAPGQGLEWMGRIFPGDGDTDYNGKFKGRVTITADKSTSTAYMELSSLRSEDTAVYYCARNVFDGYWLVYWGQGTLVTVSSGGSGGEVQLLESGGGLVQPGGSLRLSCAASGFTFSTYAMNWVRQAPGKGLEWVSRIRSKYNNYATYYADSVKGRFTISRDDSKNTLYLQMNSLRAEDTAVYYCVRHGNFGNSYVSWFAYWGQGTLVTVSSASGGSGDKTHTCPPCPAPEAAGGPSVFLFPPKPKDTLMISRTPEVTCVVVDVSHEDPEVKFNWYVDGVEVHNAKTKPREEQYNSTYRVVSVLTVLHQDWLNGKEYKCKVSNKALAAPIEKTISKAKGQPREPQVCTLPPSRDELTKNQVSLSCAVKGFYPSDIAVEWESNGQPENNYKTTPPVLDSDGSFFLVSKLTVDKSRWQQGNVFSCSVMHEALHNHYTQKSLSLSPG", "values": [
      {"measurement": "binding result", "result": "binds"}
    ]}
  ]
}
